This series has as its target RNA polymerase (RNAP), WT (E. coli, UniProt P0A7Z4;P0A8V2;P0A8T7;P0A800;P00579 1-329;1-1342;1-1407;2-91;1-613). Nature of the series: EMSA; no C protein; on ice (closed complex); EMSA: on ice 10 min, 3.5% native PAGE at 4 C; binding buffer not stated (transcription buffer: 40 mM Tris-Cl pH 8.0, 5 mM Mg acetate, 0.1 mM EDTA, 0.1 mM DTT, 100 mM KCl, 100 ug/ml BSA). The note with it: protein: recombinant, (Ni-NTA purified), chain copies: 2;1;1;1;1, label: 5' 32P. (In general: In EMSA bound probe runs differently from free probe, usually more slowly.)

The mark [1] stands for this setting: 5' overhangs 4 nt (EcoRI AATT / BamHI GATC).

B1: lys promoter 92mer (dsDNA)
DNA 1: AATTCATCCTGCCGGTTATTTCCTGTCACCATAATCCCGCACCTGCCACCTGATTTTTTAGACTGCCATCAGAGAATTTTTTCAGGGAAGCG
DNA 2: GATCCGCTTCCCTGAAAAAATTCTCTGATGGCAGTCTAAAAAATCAGGTGGCAGGTGCGGGATTATGGTGACAGGAAATAACCGGCAGGATG
B1: under setting [1], the binding result is listed as “binds”.

B2: tin7 P2-disrupted promoter 78mer (dsDNA)
DNA 1: AATTCCGGTTGCGCCCCAATAACCACACTCAACCCATGATGTTTGTTAAGATAGTGGCGAATTGATGCAAAGGAGGTG
DNA 2: GATCCACCTCCTTTGCATCAATTCGCCACTATCTTAACAAACATCATGGGTTGAGTGTGTGGTTATTGGGGCGCAACCGGG
As for B2, the binding result (5' overhangs (EcoRI AATT / BamHI GATC)) is listed as “binds”.

B3: I promoter 92mer (dsDNA)
DNA 1: AATTCTTTCTTTCTCCAGTACTCAAATAGCATAACCCCAGATTTTCCCGCACCTCCCGCAAACTGACTGCTCACAAACCATGATGAGCAGCGG
DNA 2: GATCCCGCTGCTCATCATGGTTTGTGAGCAGTCAGTTTGCGGGAGGTGCGGGAAAATCTGGGGTTATGCTATTTGAGTACTGGAGAAAGAAAG
As to B3, under setting [1], the binding result was “binds”.

B4: P promoter 92mer (dsDNA)
DNA 1: AATTCACAGGGACAGTTACAGTTAACTGCCATAACCCCGGACGGCGGCTTTTCACAGGTATCCTTTTCAGACAGTGGTACAGCCACGCCCCG
DNA 2: GATCCGGGGCGTGGCTGTACCACTGTCTGAAAAGGATACCTGTGAAAAGCCGCCGTCCGGGGTTATGGCAGTTAACTGTAACTGTCCCTGTG
Regarding B4, the binding result under setting [1] is reported as “binds”.

These data come from PMC4461284, “Different Modes of Transactivation of Bacteriophage Mu Late Promoters by Transcription Factor C”.
